In article PMC4260089 (The Plant Journal, 2014):

T1: SERK3^250–615 (entire cytoplasmic portion, JM–KD–CT) (Arabidopsis thaliana), Q94F62
T1 chain: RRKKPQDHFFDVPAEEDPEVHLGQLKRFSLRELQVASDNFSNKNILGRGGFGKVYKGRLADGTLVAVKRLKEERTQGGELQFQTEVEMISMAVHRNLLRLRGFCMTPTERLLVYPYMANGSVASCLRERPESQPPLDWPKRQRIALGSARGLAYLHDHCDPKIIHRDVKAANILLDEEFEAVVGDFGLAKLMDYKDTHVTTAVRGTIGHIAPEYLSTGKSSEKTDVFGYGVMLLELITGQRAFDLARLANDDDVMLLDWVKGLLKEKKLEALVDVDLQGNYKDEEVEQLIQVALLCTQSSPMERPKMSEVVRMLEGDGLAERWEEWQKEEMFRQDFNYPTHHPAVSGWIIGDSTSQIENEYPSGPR


Experiments:
SEC = target: the molecule itself; assay: SEC
[1] = target: T1, SERK3^250–615 (entire cytoplasmic …); assay: SEC; conditions: remark: other sources report otherwise

Row | stoichiometry N [1] | Binder | stoichiometry N (SEC)
1 |  | SERK2^281–628 (cytoplasmic portion, JM–KD–CT) (domain or fragment, Arabidopsis thaliana, UniProt Q9XIC7 281-628, looked up) EDPEVHLGQLKRFSLRELQVATDSFSNKNILGRGGFGKVYKGRLADGTLVAVKRLKEERTPGGELQFQTEVEMISMAVHRNLLRLRGFCMTPTERLLVYPYMANGSVASCLRERPPSQLPLAWSIRQQIALGSARGLSYLHDHCDPKIIHRDVKAANILLDEEFEAVVGDFGLARLMDYKDTHVTTAVRGTIGHIAPEYLSTGKSSEKTDVFGYGIMLLELITGQRAFDLARLANDDDVMLLDWVKGLLKEKKLEMLVDPDLQSNYTEAEVEQLIQVALLCTQSSPMERPKMSEVVRMLEGDGLAEKWDEWQKVEVLRQEVELSSHPTSDWILDSTDNLHAMELSGPR | 2
2 | 2 | SERK3^250–615 (entire cytoplasmic portion, JM–KD–CT), Q94F62 250-615 (domain or fragment) RRKKPQDHFFDVPAEEDPEVHLGQLKRFSLRELQVASDNFSNKNILGRGGFGKVYKGRLADGTLVAVKRLKEERTQGGELQFQTEVEMISMAVHRNLLRLRGFCMTPTERLLVYPYMANGSVASCLRERPESQPPLDWPKRQRIALGSARGLAYLHDHCDPKIIHRDVKAANILLDEEFEAVVGDFGLAKLMDYKDTHVTTAVRGTIGHIAPEYLSTGKSSEKTDVFGYGVMLLELITGQRAFDLARLANDDDVMLLDWVKGLLKEKKLEALVDVDLQGNYKDEEVEQLIQVALLCTQSSPMERPKMSEVVRMLEGDGLAERWEEWQKEEMFRQDFNYPTHHPAVSGWIIGDSTSQIENEYPSGPR | 
